# According to patent publication US20210253718A1, “FRIZZLED5 PROTEIN-BINDING AGENTS” (Modmab Therapeutics Corporation, priority 2016, published 2021):
# Assays:
# Test in all cases: Immunofluorescence of anti-FZD5 Fab binding to CHO cells overexpressing Frizzled CRD
# Design in all cases: key: −: no binding; +: very weak binder; ++: weak binder; +++: good binder; ++++: very good binder
# [1] = biological target: T1, FZD8 CRD (Homo sapiens, UniProt Q9H461)
# T1 construct: K31-D155; GPI anchor signal (C); expressed in transfected cells; host or cells: CHO cells, lentiviral pLenti-puro
# T1 sequence (Q9H461 31-155): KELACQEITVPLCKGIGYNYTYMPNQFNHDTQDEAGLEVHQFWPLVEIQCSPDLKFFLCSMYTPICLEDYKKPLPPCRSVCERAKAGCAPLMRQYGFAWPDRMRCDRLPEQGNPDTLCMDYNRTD
# Method: (§1) Plasmids: pLCKO lentiviral vector used for knockout (TKO) library construction and expression of individual gRNAs was constructed as described previously (Hart et al., 2015). Briefly, single guide RNA (sgRNA) scaffold was amplified from px330 (Addgene 42230) and cloned into pLKO.TRC005 lentiviral vector (Broad Institute, Cambridge, Mass.) using AgeI/EcoRI restriction sites. BfuAI sites were added at the 5′ end of the sgRNA scaffold for cloning the TKO library or individual gRNA target sequences. Lenti Cas9-2A-BsdR vector used to generate Cas9 stable expression cell lines was constructed as described previously (Hart et al., 2015). Briefly, lentiCRISPR pXPR_001 (Addgene 49535) was modified through removal of the sgRNA scaffold region through NdeI/EcoRI digest and blunt ends generation using Large Klenow Fragment (NEB). 2A-puro was replaced with 2A-BsdR by PCR using the NheI/MluI sites. Each of the 10 human Frizzled cysteine rich domains (CRDs) were cloned into the lentiviral expression plasmid pLenti-puro in the following cassette: FZD_CRD-MYC-GPI.
# (§2) To confirm that the FZD5-WNT7B circuit is not driven simply by expression and rule out the possibility of a disconnect between RNA and protein levels for the Wnt receptors in HPAF-II cells, a panel of recombinant Fabs were generated, alternatively referred to herein as ‘Frizzled profiler’, that can detect and discriminate all but one of the ten Frizzled receptors. […] To characterize the binding specificity of these Fabs on cells, a panel of 10 CHO cell lines was generated, each expressing the CRD domain of a different myc-tagged Frizzled family member anchored at the plasma membrane through a GPI anchor (CHO-myc-FZDGPI). Despite the high sequence identity between Frizzled family members (FIG. 7A, FIG. 7B), selective Fabs were identified for FZD4, FZD5, FZD6 and FZD10 as assessed by immunofluorescence and flow cytometry (FIG. 7D and FIG. 8). […] The FZD8 CRD is most homologous to that of FZD5 (FIG. 7B). These Fabs can be used to discriminate expression of FZD1, FZD2, FZD4, FZD5, FZD6, FZD7, FZD8, FZD9 and FZD10 (FIG. 7D and FIG. 8). The ‘Frizzled profiler’ therefore consists of 10 different Fabs that can be used to discriminate expression of 9 different Frizzled family members. The Frizzled profiler was then used to confirm that HPAF-II cells express FZD1, FZD5, FZD6 and possibly FZD8 (FIG. 7E).
# (§3) The binding of anti-FZD5 Fabs to cell surface-expressed Frizzled protein was further determined for each member of the Frizzled family via flow cytometry and immunofluorescence analysis of a panel of 10 CHO cell lines, each ectopically over-expressing the extracellular cysteine-rich domain (CRD) of a different Frizzled protein family member.
# [2] = biological target: T2, FZD5 CRD (Homo sapiens, UniProt Q13467)
# T2 construct: K29-T156; GPI anchor signal (C); expressed in transfected cells; host or cells: CHO cells, lentiviral pLenti-puro
# T2 sequence (Q13467 29-156): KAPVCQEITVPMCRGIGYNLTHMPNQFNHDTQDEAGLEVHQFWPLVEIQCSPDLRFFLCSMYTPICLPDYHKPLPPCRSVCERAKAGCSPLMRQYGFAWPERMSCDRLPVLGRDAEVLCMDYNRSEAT
# Method: as §1, §2, §3
# [3] = biological target: T3, FZD2 CRD (Homo sapiens, UniProt Q14332)
# T3 construct: D35-P161; GPI anchor signal (C); expressed in transfected cells; host or cells: CHO cells, lentiviral pLenti-puro
# Method: as §1, §2, §3
# [4] = biological target: T4, FZD9 CRD (Homo sapiens, UniProt O00144)
# T4 construct: G35-A161; GPI anchor signal (C); expressed in transfected cells; host or cells: CHO cells, lentiviral pLenti-puro
# T4 sequence (O00144 35-161): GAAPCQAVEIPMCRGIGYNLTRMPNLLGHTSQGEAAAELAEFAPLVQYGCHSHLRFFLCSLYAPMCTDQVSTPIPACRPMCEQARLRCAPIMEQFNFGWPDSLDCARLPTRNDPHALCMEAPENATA
# Method: as §1, §2, §3
# [5] = biological target: T5, FZD4 CRD (Homo sapiens, UniProt Q9ULV1)
# T5 construct: E42-V167; GPI anchor signal (C); expressed in transfected cells; host or cells: CHO cells, lentiviral pLenti-puro
# T5 sequence (Q9ULV1 42-167): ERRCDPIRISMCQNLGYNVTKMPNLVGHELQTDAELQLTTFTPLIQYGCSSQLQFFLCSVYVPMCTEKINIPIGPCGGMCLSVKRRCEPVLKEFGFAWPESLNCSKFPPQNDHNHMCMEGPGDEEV
# Method: as §1, §2, §3
# [6] = biological target: T6, FZD6 CRD (Homo sapiens, UniProt O60353)
# T6 construct: S20-P146; GPI anchor signal (C); expressed in transfected cells; host or cells: CHO cells, lentiviral pLenti-puro
# T6 sequence (O60353 20-146): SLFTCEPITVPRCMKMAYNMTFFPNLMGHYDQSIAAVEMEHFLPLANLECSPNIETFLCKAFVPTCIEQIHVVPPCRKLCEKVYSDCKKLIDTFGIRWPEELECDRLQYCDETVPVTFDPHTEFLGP
# Method: as §1, §2, §3
# [7] = biological target: T7, FZD10 CRD (Homo sapiens, UniProt Q9ULW2)
# T7 construct: 30-156; GPI anchor signal (C); expressed in transfected cells; host or cells: CHO cells, lentiviral pLenti-puro
# T7 sequence (Q9ULW2 30-156): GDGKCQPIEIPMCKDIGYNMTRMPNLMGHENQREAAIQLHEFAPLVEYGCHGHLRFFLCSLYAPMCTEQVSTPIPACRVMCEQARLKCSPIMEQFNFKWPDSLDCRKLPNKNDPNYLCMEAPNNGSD
# Method: as §1, §2, §3
substance,measurement,setting,value
"Fab-2931: anti-FZD5 Fab with antibody variable region Fv-2931; CDR SEQ ID NOs: 35, 36, 70, 102, 146, 176 (CDR 1 QSVSSA; CDR 2 SAS; CDR 3 QQSSYSLIT; CDR 4 GFNLSYSS; CDR 5 ISPYSGST; CDR 6 ARGSYWYVGGGWWVSGHGGMDY)","Immunofluorescence binding, Frizzled CRD overexpressed on CHO cells: FZD8",[1],−
same,"Immunofluorescence binding, Frizzled CRD overexpressed on CHO cells: FZD5",[2],++++
same,"Immunofluorescence binding, Frizzled CRD overexpressed on CHO cells: FZD2",[3],+
same,"Immunofluorescence binding, Frizzled CRD overexpressed on CHO cells: FZD9",[4],−
same,"Immunofluorescence binding, Frizzled CRD overexpressed on CHO cells: FZD4",[5],−
same,"Immunofluorescence binding, Frizzled CRD overexpressed on CHO cells: FZD6",[6],−
same,"Immunofluorescence binding, Frizzled CRD overexpressed on CHO cells: FZD10",[7],−
